Experimental data published in US6673354B2, “Compositions and methods for treating papillomavirus-infected cells” (priority 1998, dated 2004).

Experiments:
[1] = target: T1, epitope tagged full length HPV16 E1 (EE16-E1) (human papillomavirus type 16, UniProt P03114 1-649); test: inhibition of HPV16 E1-E2 co-immunoprecipitation by peptide; competitor HPV16 E2
T1 construct: range 1-649; also called EE-E1; HPV16 EE-E1
T1 sequence: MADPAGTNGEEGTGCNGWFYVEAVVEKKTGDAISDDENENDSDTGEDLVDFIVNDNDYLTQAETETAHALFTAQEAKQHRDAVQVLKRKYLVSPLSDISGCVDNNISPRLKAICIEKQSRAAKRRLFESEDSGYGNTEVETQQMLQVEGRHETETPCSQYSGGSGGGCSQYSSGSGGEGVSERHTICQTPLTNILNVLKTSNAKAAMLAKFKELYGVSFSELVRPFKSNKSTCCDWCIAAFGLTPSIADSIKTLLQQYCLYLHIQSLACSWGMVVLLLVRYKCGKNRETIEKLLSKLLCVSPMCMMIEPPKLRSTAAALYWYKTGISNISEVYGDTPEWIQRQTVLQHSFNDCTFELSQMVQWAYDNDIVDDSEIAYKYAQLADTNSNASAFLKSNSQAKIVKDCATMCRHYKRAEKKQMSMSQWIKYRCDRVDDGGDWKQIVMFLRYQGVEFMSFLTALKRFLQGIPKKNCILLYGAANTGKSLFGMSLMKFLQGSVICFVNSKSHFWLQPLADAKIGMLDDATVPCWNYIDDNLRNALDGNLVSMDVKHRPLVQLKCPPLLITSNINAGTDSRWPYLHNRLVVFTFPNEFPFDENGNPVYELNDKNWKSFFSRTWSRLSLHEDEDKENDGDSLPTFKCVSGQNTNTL

[2] = target: T2, HPV11 EE-E1 (epitope tagged HPV11 E1) (human papillomavirus type 11, UniProt P04014 1-649); test: co-immunoprecipitation with anti-EE antibody, Western blot for E2
T2 sequence: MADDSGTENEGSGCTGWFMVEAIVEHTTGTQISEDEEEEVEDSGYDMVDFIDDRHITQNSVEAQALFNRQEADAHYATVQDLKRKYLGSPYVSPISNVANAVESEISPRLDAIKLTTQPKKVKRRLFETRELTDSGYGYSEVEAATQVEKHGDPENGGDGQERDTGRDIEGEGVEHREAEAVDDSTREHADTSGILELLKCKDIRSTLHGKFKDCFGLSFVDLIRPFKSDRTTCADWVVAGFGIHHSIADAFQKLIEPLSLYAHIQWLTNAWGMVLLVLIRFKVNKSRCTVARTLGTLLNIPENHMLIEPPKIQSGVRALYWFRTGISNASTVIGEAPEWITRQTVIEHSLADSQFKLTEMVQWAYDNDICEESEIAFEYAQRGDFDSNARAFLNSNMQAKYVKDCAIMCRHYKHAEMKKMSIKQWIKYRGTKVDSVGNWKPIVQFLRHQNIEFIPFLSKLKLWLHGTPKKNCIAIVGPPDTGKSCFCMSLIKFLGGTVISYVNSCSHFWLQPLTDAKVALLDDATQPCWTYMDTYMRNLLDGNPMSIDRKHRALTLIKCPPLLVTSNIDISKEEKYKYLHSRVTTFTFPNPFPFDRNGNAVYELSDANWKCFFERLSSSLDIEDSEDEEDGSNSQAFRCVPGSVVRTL

[3] = target: T3, EE-EIC (epitope tagged carboxy terminal domain of HPV16 E1) (human papillomavirus type 16, UniProt P03114 424-649); test: in vitro E1-E2 competition binding assay with EE-EIC, 10-40 µM peptide, FIG. 14
T3 construct: range 424-649; limits uncertain; also called HPV-16 EE-EIC; EE-E1C
T3 sequence: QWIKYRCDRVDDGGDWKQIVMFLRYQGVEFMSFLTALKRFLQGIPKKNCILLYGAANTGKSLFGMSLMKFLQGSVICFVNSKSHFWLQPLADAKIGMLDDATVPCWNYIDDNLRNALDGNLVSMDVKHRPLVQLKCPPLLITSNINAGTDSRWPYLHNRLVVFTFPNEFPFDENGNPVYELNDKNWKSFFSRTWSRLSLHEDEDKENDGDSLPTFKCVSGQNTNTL

Row | Binder | IC50 [1] | other results
1 | HIDYWKHMRLECAIYYKAREMGF (also called 23-mer) [E2N-WP23 (peptide of HPV16 E2 amino acids 29-51)] | 5 µM | 
2 | HPV16 E2 E39A mutant (other, also called E39A replication defective HPV16 E2 mutant) METLCQRLNVCQDKILTHYENDSTDLRDHIDYWKHMRLACAIYYKAREMGFKHINHQVVPTLAVSKNKALQAIELQLTLETIYNSQYSNEKWTLQDVSLEVYLTAPTGCIKKHGYTVEVQFDGDICNTMHYTNWTHIYICEEASVTVVEGQVDYYGLYYVHEGIRTYFVQFKDDAEKYSKNKVWEVHAGGQVILCPTSVFSSNEVSSPEIIRQHLANHPAATHTKAVALGTEETQTTIQRPRSEPDTGNPCHTTKLLHRDSVDSAPILTAFNSSHKGRINCNSNTTPIVHLKGDANTLKCLRYRFKKHCTLYTAVSSTWHWTGHNVKHKSAIVTLTYDSEWQRDQFLSQVKIPKTITVSTGFMSI |  | binding result [2]: no binding
3 | WKHMRLECAIYYKAR (also called 15-mer; wild-type peptide) [E2N-WP15 (peptide of HPV16 E2 residues 33-47)] | 7.5 µM | 
4 | ERQIKIWFQNRRMKWKKGGWKHMRLECAIYYKAR (also called Antennapedia fusion peptide) [Ant-WP (Drosophila Antennapedia aa 42-58, Gly-Gly spacer, WP15)] |  | binding result [3]: binds
